Data on seven proteins can be found in patent EP2843044A1, “Improved variant of D-psicose 3-epimerase and uses thereof” (Roquette Frères, priority 2013, dated 2015).

B1: D-psicose 3-epimerase (DPEase) from Clostridium cellulolyticum, variant G211S, SEQ ID No 4 (Ruminiclostridium cellulolyticum H10; G211S) (protein)
chain: MKHGIYYAYWEQEWEADYKYYIEKVAKLGFDILEIAASPLPFYSDIQINELKACAHGNGITLTVGHGPSAEQNLSSPDPDIRKNAKAFYTDLLKRLYKLDVHLIGGALYSYWPIDYTKTIDKKGDWERSVESVREVAKVAEACGVDFCLEVLNRFENYLINTAQEGVDFVKQVDHNNVKVMLDTFHMNIEEDSIGGAIRTAGSYLGHLHTSECNRKVPGRGRIPWVEIGEALADIGYNGSVVMEPFVRMGGTVGSNIKVWRDISNGADEKMLDREAQAALDFSRYVLECHKHS
notes: made in house; host or cells: Bacillus subtilis WB600 (pMA5)
B2: D-psicose 3-epimerase (DPEase) from Clostridium cellulolyticum, variant G211L (Ruminiclostridium cellulolyticum H10; G211L) (protein)
chain: B1 chain with S211L
notes: as for B1
B3: D-psicose 3-epimerase (DPEase) from Clostridium cellulolyticum, variant G211R (Ruminiclostridium cellulolyticum H10; G211R) (protein)
chain: B1 chain with S211R
notes: made in house
B4: D-psicose 3-epimerase (DPEase) from Clostridium cellulolyticum, variant G211A (Ruminiclostridium cellulolyticum H10; G211A) (protein)
chain: B1 chain with S211A
notes: as for B1
B5: D-psicose 3-epimerase (DPEase) from Clostridium cellulolyticum, wild type, SEQ ID No 2 (Ruminiclostridium cellulolyticum H10) (protein)
chain: B1 chain with S211G
notes: as for B1
B6: D-psicose 3-epimerase (DPEase) from Clostridium cellulolyticum, variant G211W (Ruminiclostridium cellulolyticum H10; G211W) (protein)
chain: B1 chain with S211W
notes: as for B1
B7: D-psicose 3-epimerase (DPEase) from Clostridium cellulolyticum, variant G211D (Ruminiclostridium cellulolyticum H10; G211D) (protein)
chain: B1 chain with S211D
notes: as for B1

Substitutions are numbered along the chain they refer to. Numbers in names are those of the source.

Substrate in the series: O=C(CO)[C@@H](O)[C@H](O)[C@H](O)CO
Put plainly: Determination of kinetic parameters of DPEase (HPLC assay of D-psicose formed). Format: biochemical, Clostridium cellulolyticum. Particulars: other: 50 mM Tris-HCl buffer (pH 8.0), 0.1mM Co^2+, 5-200mM substrate, 55 °C. The procedure:
Kinetic parameters of DPEase variants were determined in 50 mM Tris-HCl buffer (pH 8.0) containing 0.1mM Co^2+ and 5-200mM substrate for reaction at 55 °C. The enzyme reactions were stopped after 10 min by boiling, and the amount of D-psicose was determined by the HPLC assay. Kinetic parameters, such as the Michaelis-Menten constant (Km) and turnover number (kcat) values for substrates, were obtained using the Lineweaver-Burk equation and quantification of enzyme concentration.
The concentrations of D-fructose and D-psicose were analyzed by HPLC equipped with a refractive index detector and a Ca^2+-carbohydrate column (Waters Sugar-Pak 1, Waters Corp., Milford, MA), which was eluted with water at 85 °C and 0.4 mL/min. Protein concentration was determined according to the method of Bradford using bovine serum albumin as a standard. SDS-PAGE was carried out according to the method of Laemmli. Gels (12% w/v polyacrylamide) were stained with Coomassie Brilliant Blue and destained with an aqueous mixture of 10% (v/v) methanol/10% (v/v) acetic acid. Table 1: Enzyme properties and kinetic parameters of the wild-type and mutant enzymes of DPEase from C. cellulolyticum for substrate D-psicose
For B1, the kcat/Km is on record as 150.6 mM^-1 min ^-1.

In the case of B2, the kcat/Km is recorded as 73.2 mM^-1 min ^-1. The figure for B3 is 26.5 mM^-1 min ^-1. For the protein B4, the kcat/Km is on record as 9.8 mM^-1 min ^-1. With B5 the figure was 62.7 mM^-1 min ^-1. The figure for B6 is 68.1 mM^-1 min ^-1; for B7 it is 86.7 mM^-1 min ^-1.
